Experimental findings from the RNAGym collection of RNA variant scans (doi:10.7554/elife.80360) are described below.

B1: HDV Ribozyme (parent)
chain: GGCCGGCAUGGUCCCAGCCUCCUCGCUGGCGCCGGCUGGGCAACAUUCCGAGGGGACCGUCCCCUCGGUAAUGGCGAAUGGGACCCA

The variants in this data set derive from B1. As to the kind of experiment: self-cleavage, relative activity (ratio to wild type); higher = more cleavage; co-transcriptional.
In the case of GGCCGGCAUGGUCCCAGCCUCCUCGCUGGCGCCCGCUGGGCAACAUUCCGAGGGGACCGUCCCCUCGGUAAUGGCGAAUUGGACCCA, the self-cleavage was 0.203. On to GGCCGGCCUGGUCCCAGCCUCCUCGCUGGCGCCGGCUGGGCAACAUUCCGAGGGGACCGUCCCCUCGGUAUUGGCGAAUGGGACCCA, for which the self-cleavage stood at 0.427. The same measure for GGCCGGCAUGGUCCCAGCCUCCUCGGUGGCGCCGGCUGGGCAACAUUCCGAGGGGACCGUCCCCUCGGUAAUGGCGAACGGGACCCA: 0.458; for GGCCGGCAUGGUCCCAGCCUCCUCGCUGGCGCCGGCUGGGCAACAUUCCGAGUGGACCGUCCCCUCGGUAAAGGCGAAUGGGACCCA: 0.798; for GGCCGGCAUGGUCUCAGCCUCCUCGCUGGCGCCGGCUGGGCAACAUUCCGAGGGGACCGUCCCCUCGGUAAUGGCGAAUGGGUCCCA: 0.378. The same measure for GGCCGGCAUGGUCCCAGCCUCCUCGAUGGCGCCGGCUGGGCAACAUUCCGCGGGGACCGUCCCCUCGGUAAUGGCGAAUGGGACCCA: 1.13; for GGCCGGCAUAGUCCCAGCCUCCUCGCUGGCGCCGGCUGGGCAACAAUCCGAGGGGACCGUCCCCUCGGUAAUGGCGAAUGGGACCCA: 0.506.

Take GGCCGGCAUGGUCCCUGCCUCCUCGCUGACGCCGGCUGGGCAACAUUCCGAGGGGACCGUCCCCUCGGUAAUGGCGAAUGGGACCCA: the self-cleavage turned out to be 0.0378. The same measure for CGCCGGCAUGGUCCCAGCCUCCUCGCUGGCGCCGGCUGGGCAACAUUCCGAGGGGACCGUCCCCUCGGUAAUGGCGAAUGGGACACA: 0.161.

Take UGCCGGCAUGGUCCCAGCCUCCUCGCUGGCGCCGGCUGGGCAACAUUCCGAGGGGACCGUCCCCUCGGUAAUGGCGAAUGUGACCCA: the self-cleavage came out at 0.41.

On to GGCCGGCAUGGUCCCAUCCUCCUCGCUGGCGCCGGCUGGGCAACAUUCCGAGGGGAGCGUCCCCUCGGUAAUGGCGAAUGGGACCCA, for which the self-cleavage came out at 0.464. As for GGCCGGCAUGGUCCCAGCCUCCUCGCUGGCGCCGGCUGGGCAACAUUCCGAGGGGACCGUCCCCUCGGUAAAGGCGCAUGGGACCCA, the self-cleavage is 0.199. GGCCGGCAUGGUCCCAGCAUCCUCGCUGGCGCCGGCUGGGCAACAUUCCGAGGGAACCGUCCCCUCGGUAAUGGCGAAUGGGACCCA: the self-cleavage worked out at 0.0906. Regarding GGCCGGCAUGGUCCCAGCCUCCUCGCUGGCGCCGGCUGGCCAACAUUCCGAGGGGACCGUCCCCUCGGUAAUGGCUAAUGGGACCCA, the self-cleavage was 0.346. With GGCCGGCAUGGUCCCAGCCUCCUCGCUGGCGACGGCUGGGCAACAUUCCGAGGGGACCGUCCCCUCGGUAAUGGCGAAUGGGACGCA the figure was 0.252; with GGCCGGCAUGGUCCCAGCCUCCUCGCUGGCGCCGGCUGGGCAACAUUCCGAGGGGACCGUCCCCUGGGUAAAGGCGAAUGGGACCCA, 0.587; with GGCCGACAUGGUCCCAGCCUCCUCGCUGGCGCCGGCUGGGCAACAUUCCGAGGGGACCGUCCCCUCGGUAAUGGCGAUUGGGACCCA, 0.0297. With GGCCGGUAUGGUCCCAGCCUCCUCGCUAGCGCCGGCUGGGCAACAUUCCGAGGGGACCGUCCCCUCGGUAAUGGCGAAUGGGACCCA the figure was 0.136; with GGCCGGCAUGGUCCCAGCUUCCUCGCUGGCGCCGGAUGGGCAACAUUCCGAGGGGACCGUCCCCUCGGUAAUGGCGAAUGGGACCCA, 0.0639.

Consider GGCCGGCAUGGUCCCAGCCUCCUCGCUGGCGCCGGCUGGGCAACAUUCCGAGGGGACCGUCCCCUCGGUCAUGGCGAAGGGGACCCA, for which the self-cleavage came to 0.554.

On to GGCCGGCAUGGUCCCAGCCUCCUCGCUGGCGCCGGCUGGGCAACAUUCCGAGGGGACCGUACCCUCGGUAAUGGCGAAUGGGAACCA, for which the self-cleavage is 0.831. The same measure for GGCUGGCAUGGUCCCAGCCUCCUCGUUGGCGCCGGCUGGGCAACAUUCCGAGGGGACCGUCCCCUCGGUAAUGGCGAAUGGGACCCA: 0.764; for GGCCGGCAUGGUCCCAGCCUCCUCGCUGGCGCCGGCUGGGUAACAUUCCGAGGGGACCGUCCCCUCGGUAAUGGCGAAUGGGACCAA: 1.04.

UGCCGGCAUGGUCCCAGCCUCCUCGCUGGCGCCGGCUGGGCAACAUUCCGAGGGGACCGACCCCUCGGUAAUGGCGAAUGGGACCCA: the self-cleavage was found to be 0.343. GGCCGGCAUGGUCCCAGCCUCCUCGCUGGUGCCGGCUGGGCAACCUUCCGAGGGGACCGUCCCCUCGGUAAUGGCGAAUGGGACCCA: the self-cleavage turned out to be 0.138.

On to GGACGGCAUGGUCUCAGCCUCCUCGCUGGCGCCGGCUGGGCAACAUUCCGAGGGGACCGUCCCCUCGGUAAUGGCGAAUGGGACCCA, for which the self-cleavage is 0.697. With GGCCGGCAUGGUCCCAGCCUCCGCGCUGGCGCCGGCUGGGCAACAUUCCGAGGGGACCGUCCGCUCGGUAAUGGCGAAUGGGACCCA the figure was 0.688; with GGCCGGCAUGGUCCCAGCCUCCUCGCUGGCGCCGGCUGGGCAACCUUCCGAGGGGACCGGCCCCUCGGUAAUGGCGAAUGGGACCCA, 0.63; with GGCCGGCAUGGUCCCAGCCUCCUCGCUGGCGCCGACUGGGCAACAUUCCGAGGGGACCGUCCCCUCGCUAAUGGCGAAUGGGACCCA, 0.676. Consider GGCCGGCAUGGUCCCAGCCUCCUCGCUGGCGCCGGCUGGGCCACAUUCCGAAGGGACCGUCCCCUCGGUAAUGGCGAAUGGGACCCA, for which the self-cleavage turned out to be 0.399.

Regarding GGCCGGCAUGGUCCCAGCUUCCUCGCUGGCGCCGGCUGGGCAACAUUCCGAGGGGACCGUCCCCUGGGUAAUGGCGAAUGGGACCCA, the self-cleavage turned out to be 0.155. Turning to GGCCGGCAUGGUCCCAGCCUCCUGGCUGGUGCCGGCUGGGCAACAUUCCGAGGGGACCGUCCCCUCGGUAAUGGCGAAUGGGACCCA, the self-cleavage worked out at 0.0712. For the variant GGCCGGCAUGGUCCCAACCUCCUCGCUGGCGCCGGCUGGGCAACAUUCCGAGGGGCCCGUCCCCUCGGUAAUGGCGAAUGGGACCCA, the self-cleavage came out at 0.847. With GGCCGGCAUGGUCCCAGCCUCCUCGCUGGCGCCGGCUGGGCAACAUUCCGAGGGGACCGUCCCCUCGUUAAUGGCGAAUGGGACUCA the figure was 0.972. Turning to GGCCGGCAUGGUCCCAGGCUCCUCGCUGGCGCCGUCUGGGCAACAUUCCGAGGGGACCGUCCCCUCGGUAAUGGCGAAUGGGACCCA, the self-cleavage worked out at 0.0415. As to GGCCGGCAUGGUCCCAGCCUCUUCGCUGGCGCCGGCUGGGCAACAUCCCGAGGGGACCGUCCCCUCGGUAAUGGCGAAUGGGACCCA, the self-cleavage was 0.424. The same measure for GGCCGGCAUGGUCCCAGCCUCCUCGCUGGCGCCGGCUGGGCAACACUCCGAGGGGACCGUCCCCUCGGUAAUGACGAAUGGGACCCA: 0.48; for GGCCGGCAUGGUCCCGGCCUCCUCGCUGGCGCCGGCUGGGCAACAUUCCGAGGGGACCGUCCCCUCGGUAAUGGCGACUGGGACCCA: 0.308; for GGCCGGCAAGGUCCCAGCCUGCUCGCUGGCGCCGGCUGGGCAACAUUCCGAGGGGACCGUCCCCUCGGUAAUGGCGAAUGGGACCCA: 0.0462. On to GGCCGGCAUGGUCCCAGCCUCCUCGCUGGCGCCGGCUGGGCAACAUUCCGAGGGGACCCUCCCCUCGGUAAUGGCCAAUGGGACCCA, for which the self-cleavage was 1.19. Turning to GGCCGGCAUGGUCCCAGCCUCCUCGCUGGCGCCGGCUGGGCAACAUUCCGAGGGGACCGUCCCCUCCGUAAUGGCGAAGGGGACCCA, the self-cleavage worked out at 0.435. With GGCCGGCAUGGUCCCAGGCUCCUCGCUGGCGUCGGCUGGGCAACAUUCCGAGGGGACCGUCCCCUCGGUAAUGGCGAAUGGGACCCA the figure was 0.172. The same measure for GGCCGGCAUGGUCCCAGCCUCCUCGCUGAUGCCGGCUGGGCAACAUUCCGAGGGGACCGUCCCCUCGGUAAUGGCGAAUGGGACCCA: 0.095.

In the case of GGCCGGCAUGGUCCCAGCCUCCUCGCAGGCGACGGCUGGGCAACAUUCCGAGGGGACCGUCCCCUCGGUAAUGGCGAAUGGGACCCA, the self-cleavage amounted to 0.0604. With GGCCGGCAUGGUCCCAGCCGCCUCGCUGGCGCCGGCUGGGCAACAUUCCGAGGGGGCCGUCCCCUCGGUAAUGGCGAAUGGGACCCA the figure was 0.151. The same measure for GGCCGGCAUGGUCCCAGCCUCCUCUCUGCCGCCGGCUGGGCAACAUUCCGAGGGGACCGUCCCCUCGGUAAUGGCGAAUGGGACCCA: 0.106; for GGCCGGCAUGGUCCCAGCCUCCUCGCUGACGCCGGCUGGGCAGCAUUCCGAGGGGACCGUCCCCUCGGUAAUGGCGAAUGGGACCCA: 0.0386; for GGCCGGCAUGGUCCCAGCCUCCUCGCUGGCGCCGGCUGGGCAACAUUCCGAGGGGACCGCCCCCUCGGUAAUGGCGAAUGGGAGCCA: 0.856. As to GGCAGGCAUGGUCCCAGCCUCCUCGCUGGCGCCGGCUGGGCAACAUCCCGAGGGGACCGUCCCCUCGGUAAUGGCGAAUGGGACCCA, the self-cleavage was found to be 0.293. The same measure for GGCCGGCAUGGUCCCAGCCUCCGCGCUGGCGCCGGCUGGGCAACAUUCCGAGGGUACCGUCCCCUCGGUAAUGGCGAAUGGGACCCA: 0.502. GGCCGGCAAGGUCCCAUCCUCCUCGCUGGCGCCGGCUGGGCAACAUUCCGAGGGGACCGUCCCCUCGGUAAUGGCGAAUGGGACCCA: the self-cleavage is 0.383. Turning to UGCCGGCAUAGUCCCAGCCUCCUCGCUGGCGCCGGCUGGGCAACAUUCCGAGGGGACCGUCCCCUCGGUAAUGGCGAAUGGGACCCA, the self-cleavage came out at 0.387. The same measure for GGCCGGCAUGGUCCCAGCCUCCUCGCUGGCGCCGGCUGGGUAACAUUCCGAGGGGACCGUCCCCUCGGUAAUGGCGCAUGGGACCCA: 0.341; for GGCCGGCAUAGUCCCAGCCUCCUCGCUGGCGCCGGCGGGGCAACAUUCCGAGGGGACCGUCCCCUCGGUAAUGGCGAAUGGGACCCA: 0.198. As to GGCCGGCAUGGUCCCAGCCUCCUCGCUGGCGCCGGGUGGGCAACAUUCCGAGGGGACCGUCCCCUCGGUAAUGGCGAAUUGGACCCA, the self-cleavage came to 0.0507. Consider GGCCGGCAUGGUCCCAGCCUCCUCGCUGGCCCCGGCUGGGCAACAUUCCGAGGGGACCGUCCCCUCGGUAAUGGCGAAUGGGACCCA, for which the self-cleavage stood at 0.363.

For GGCCGGCAUGGUCCCAGCCUCCUCGCUGGCGCCGACUGGGCAACAUUCCGAGGGGACCGUCCCCUCGGUAAUGGCGAGUGGGACCCA, the self-cleavage was 0.138. With GGCCGGCAUGGUCCCAGCCUCCUAGCUGGCGCUGGCUGGGCAACAUUCCGAGGGGACCGUCCCCUCGGUAAUGGCGAAUGGGACCCA the figure was 0.363; with GGCCGGCAUGGUCCCAGCCUCCUCGCUGGCGCCGGCUGGGCAACAUUCCGAGGGGACCGUCCCCUCGUAAAUGGCGAAUGGGACCCA, 0.912; with GGCCGGCAUGGUCCCAGACUCCUCGCUGGCGCCGGCUGGGCAACAUUCCGAGGGGACCGUCCCCUCGGUAAUGGCGGAUGGGACCCA, 0.0354. As to GGCAGGCAUGGUUCCAGCCUCCUCGCUGGCGCCGGCUGGGCAACAUUCCGAGGGGACCGUCCCCUCGGUAAUGGCGAAUGGGACCCA, the self-cleavage came to 0.0739.

For GGCCGGCAUGGUCCCAGCCUCCUCGGUGGCGCCGGCUGGGCAACAUUCCGAGGGGACCGUCCCCUCGGUAAUGGCGAAUAGGACCCA, the self-cleavage is 0.789.

For the variant GGCCGGCAUGGUCCCAGCCUCCUCGCUGGCGCCGGCUGGGCAACAUUCCGAGGGGAUCGUCCCCUCGGUAAUGGCGCAUGGGACCCA, the self-cleavage was found to be 0.415. For GGCCUGCAUGGUCCCAACCUCCUCGCUGGCGCCGGCUGGGCAACAUUCCGAGGGGACCGUCCCCUCGGUAAUGGCGAAUGGGACCCA, the self-cleavage was determined as 0.189.
